B1: CPEB3 Ribozyme (parent)
chain: UAACAGGGGGCCACAGCAGAAGCGUUCACGUCGCAGCCCCUGUCAGAUUCUGGUGAAUCUGCGAAUUCUGCUGUAUAUCUC

Variants of: B1
Assay: self-cleavage, relative activity (ratio to wild type); higher = more cleavage; in vitro, sequencing
Method in brief: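 Relative activity was defined as the cleaved/total read fraction for a variant divided by the same fraction for the unmutated ribozyme. CPEB3 self-cleaving ribozyme libraries were made by rounds of error-prone PCR, barcoded, and transcribed in vitro with T7 RNA polymerase for 5 hours at 37°C, and cleavage ran through transcription plus a 15 min DNase I step before EDTA. Illumina sequencing of template-switched reverse transcripts gave the reads, and DNA sequencing mapped the barcodes. Averages come from three batches, using variants with at least 5 reads.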

Point of comparison: U49A U54G, self-cleavage 0.27. Against it:
- U49A U54A — higher, 0.81
- U49A U54C — higher, 0.54
- C50G U72C — higher, 0.75
- C50G U72A — higher, 0.58
- U49C G63A — higher, 0.39
- U49C G63U — higher, 0.35
- U49C A65C — lower, 0.14
- U49C A65U — lower, 0.26
- U49C A65G — lower, 0.26
- U48C A57G — higher, 1.11
- U48C A57U — higher, 0.58
- U48C A57C — higher, 0.5
- C50A U51C — higher, 0.93
- C50A U51A — higher, 0.84
- U49A U67A — higher, 0.57
- U49A U67C — higher, 0.3
- U48G U78C — higher, 0.59
- U48G — higher, 0.5
- U48C — higher, 0.65
- U49C A64U — lower, 0.24
- U49C A64G — the same, 0.27
- U49C A64C — lower, 0.26
- U49C U76C — higher, 0.48
- U49C U76A — higher, 0.49
- U48C A77U — higher, 0.65
- U48C A77G — higher, 0.6
- U48C A77C — higher, 0.61
- C50A U76C — higher, 1.02
- C50A U76A — higher, 0.65
- U48A U67C — lower, 0.25
- U49A U66C — higher, 0.38
- U49A U66A — lower, 0.24
- U48G U69A — lower, 0.21
- U48G U69C — higher, 0.34
- U48C U51G — higher, 0.33
- U48C U51A — higher, 0.42
- U48C U51C — higher, 0.49
- U49G — higher, 0.52
- U49A — higher, 0.71
- U49C — higher, 0.43
- U48C U66C — the same, 0.27
- U48C U66A — higher, 0.44
- C50A U66C — higher, 0.3
- U49A A77U — higher, 0.9
- U49A A77G — higher, 0.46
- U49G C79U — higher, 0.77
- U49A A57G — higher, 0.5
- U49A A57U — higher, 0.4
- C50G U51C — higher, 0.68
- U49G C81U — higher, 0.77
- U49C U60A — lower, 0.22
- U49C U60C — lower, 0.22
- U49C U60G — lower, 0.13
- U48G A56G — higher, 0.28
- U48A U78C — higher, 0.35
- U48A U78A — higher, 0.42
- U49G U60C — lower, 0.23
- U49A G61C — lower, 0.19
- C50A U80C — higher, 1.05
- C50A U80A — higher, 0.83
- U48C C59A — lower, 0.19
- U48C C59U — higher, 0.39
- U49A A65C — lower, 0.13
- U49A A65U — higher, 0.47
- U49A A65G — higher, 0.29
- U49C U78G — higher, 0.39
- U49C U78A — higher, 0.46
- U49C U78C — higher, 0.42
- C50A U67C — lower, 0.2
- C50A U67A — higher, 0.38
- U49A G53A — higher, 0.79
- U49C U51A — higher, 0.49
- U49C U51G — higher, 0.36
- U49C U51C — higher, 0.38
- C50A A57U — lower, 0.22
- U49A G52A — higher, 0.84
- C50U A65G — higher, 0.4
- U49C U72A — lower, 0.26
- U49C U72C — higher, 0.36
- U49C U72G — lower, 0.26
- U48G U76A — higher, 0.43
- C50G A57G — higher, 0.51
- U49A C79U — higher, 1.07
- U48C U60G — higher, 0.33
- U48C U60C — lower, 0.26
- U48C U60A — lower, 0.26
- U48C C81U — higher, 1
- U48G U51C — higher, 0.53
- C50A U72C — higher, 0.86
- U48C U80A — higher, 0.68
- U48C U80C — higher, 0.68
- U48G U54C — lower, 0.19
- U49C U69G — lower, 0.25
- U49C U69A — lower, 0.25
- U49C U69C — higher, 0.31
- U48G U60G — lower, 0.22
- C50A U78G — higher, 1.06
- C50A U78C — higher, 0.71
- C50A A64C — higher, 0.43
- C50A A64G — higher, 0.73
- C50A C71U — higher, 0.55
- C50A C71G — lower, 0.18
- U48C G73U — higher, 0.95
- U48C G73C — higher, 1.23
- C50A A65G — higher, 0.31
- U48C A65C — lower, 0.21
- U48C A65G — the same, 0.27
- U48C A65U — the same, 0.27
- U49A U74A — higher, 1.34
- U49A U74C — higher, 0.95
- U49C U67A — higher, 0.28
- U49C U67G — higher, 0.32
- U49C U67C — lower, 0.23
- U49C A75U — higher, 0.62
- U49C A75G — higher, 0.4
- U49C A75C — higher, 0.55
- U49A A75U — higher, 0.64
- U49A A75G — higher, 0.39
- U48G U80C — higher, 0.6
- U49C A57G — higher, 0.35
- U49C A57U — higher, 0.33
- U48C U67C — higher, 0.3
- U48C U67A — higher, 0.3
- C50A A56G — higher, 0.43
- C50G A75C — higher, 0.54
- U49C G53A — higher, 0.52
- U49C G53C — higher, 0.44
- U49G U80C — higher, 0.48
- U49C C79U — higher, 0.76
- U49A C59A — higher, 0.34
- U49A C59U — lower, 0.19
- U48C A75G — higher, 0.43
- U48C A75U — higher, 0.71
- U48C A75C — higher, 1.07
- U49C G70A — higher, 0.44
- U49C G70U — lower, 0.2
- U49G A56G — higher, 0.35
- U49G A56U — higher, 0.65
- U48C U78A — higher, 0.86
- U48C U78C — higher, 0.54
- U48C U78G — higher, 0.94
- U48A U80A — higher, 0.87
- U48A U80C — higher, 0.57
- U49G U67C — higher, 0.31
- U49A A64U — lower, 0.25
- U49A A64G — higher, 0.51
- U49A G70U — lower, 0.24
- U49A G70A — higher, 0.49
- U49C A56G — higher, 1.04
- U49C A56C — higher, 0.42
- U49C A56U — higher, 0.48
- U49G U72C — higher, 0.72
- U48C G53A — higher, 0.69
- U49A G63A — higher, 0.69
- U49A G63U — higher, 0.63
- U49A G63C — higher, 0.88
- U48C U74A — higher, 0.88
- U48C U74C — higher, 1.02
- U48C U74G — higher, 1.02
- C50G G61A — the same, 0.27
- U49A C62U — higher, 0.44
- U49A C62A — lower, 0.26
- C50U A75U — higher, 1.22
- U49C U54C — higher, 0.38
- U49C U54G — lower, 0.25
- U49C U54A — higher, 0.42

From the RNAGym collection of RNA variant scans (doi:10.1093/nar/gkz1192)
